# From FireProtDB (doi:10.1016/j.bbadis.2004.06.012)
# B1: Aryl-hydrocarbon-interacting protein-like 1, Q9NZN9 (parent)
# chain: MDAALLLNVEGVKKTILHGGTGELPNFITGSRVIFHFRTMKCDEERTVIDDSRQVGQPMHIIIGNMFKLEVWEILLTSMRVHEVAEFWCDTIHTGVYPILSRSLRQMAQGKDPTEWHVHTCGLANMFAYHTLGYEDLDELQKEPQPLVFVIELLQVDAPSDYQRETWNLSNHEKMKAVPVLHGEGNRLFKLGRYEEASSKYQEAIICLRNLQTKEKPWEVQWLKLEKMINTLILNYCQCLLKKEEYYEVLEHTSDILRHHPGIVKAYYVRARAHAEVWNEAEAKADLQKVLELEPSMQKAVRRELRLLENRMAEKQEEERLRCRNMLSQGATQPPAEPPTEPPAQSSTEPPAEPPTAPSAELSAGPPAEPATEPPPSPGHSLQH
# Variants of: B1
# Details: Homo sapiens; pH 7.9; Thermal; CD; sodium Phosphate 5 mM; transition: 2; whole UniProt chain shown
Variant,Tm,"change of melting temperature, mutant - wild type (higher = more stable)"
MDAALLLNVEGVKKTILHGGTGELPNFITGSRVIFHFRTMKCDEERTVIDDSRQVGQPMHIIIGNMFKLEVWEILLTSMRVHEVAEFWCDTIHTGVYPILSRSLRQMAQGKDPIEWHVHTCGLANMFAYHTLGYEDLDELQKEPQPLVFVIELLQVDAPSDYQRETWNLSNHEKMKAVPVLHGEGNRLFKLGRYEEASSKYQEAIICLRNLQTKEKPWEVQWLKLEKMINTLILNYCQCLLKKEEYYEVLEHTSDILRHHPGIVKAYYVRARAHAEVWNEAEAKADLQKVLELEPSMQKAVRRELRLLENRMAEKQEEERLRCRNMLSQGATQPPAEPPTEPPAQSSTEPPAEPPTAPSAELSAGPPAEPATEPPPSPGHSLQH [T114I],34.8 °C,-9.3 °C
MDAALLLNVEGVKKTILHGGTGELPNFITGSRVIFHFRTMKCDEERTVIDDSRQVGQPMHIIIGNMFKLEVWEILLTSMRVHEVAEFWCDTIHTGVYPILSRSLRQMAQGKDPTEWHVHTCGLANMFAYHTLGYEDLDELQKEPQPLVFVIELLQVDAPSDYQRETWNLSNHEKMKAVPVLHGEGNRLFKLGRYEEASSKYQEAIICLRNLQTKEKPWEVQWLKLEKMINTLILNYCQCLLKKEEYYEVLEHTSDILRHHPSIVKAYYVRARAHAEVWNEAEAKADLQKVLELEPSMQKAVRRELRLLENRMAEKQEEERLRCRNMLSQGATQPPAEPPTEPPAQSSTEPPAEPPTAPSAELSAGPPAEPATEPPPSPGHSLQH [G262S],40.1 °C,-4 °C
MDAALLLNVEGVKKTILHGGTGELPNFITGSRVIFHFRTMKCDEERTVIDDSRQVGQPMHIIIGNMFKLEVWEILLTSMRVHEVAEFWCDTIHTGVYPILSRSLRQMAQGKDPTEWHVHTCGLANMFAYHTLGYEDLDELQKEPQPLVFVIELLQVDAPSDYQRETWNLSNHEKMKAVPVLHGEGNRLFKLGRYEEASSKYQEAINCLRNLQTKEKPWEVQWLKLEKMINTLILNYCQCLLKKEEYYEVLEHTSDILRHHPGIVKAYYVRARAHAEVWNEAEAKADLQKVLELEPSMQKAVRRELRLLENRMAEKQEEERLRCRNMLSQGATQPPAEPPTEPPAQSSTEPPAEPPTAPSAELSAGPPAEPATEPPPSPGHSLQH [I206N],41.4 °C,-2.7 °C
MDAALLLNVEGVKKTILHGGTGELPNFITGSRVIFHFRTMKCDEERTVIDDSRQVGQPMHIIIGNMFKLEVWEILLTSMRVHEVAEFWCDTIHTGVYPILSRSLRQMAQGKDPTEWHVHTCGLANMFAYHTLGYEDLDELQKEPQPLVFVIELLQVDAPSDYQRETWNLSNHEKMKAVPVLHGEGNRLFKLGRYEEPSSKYQEAIICLRNLQTKEKPWEVQWLKLEKMINTLILNYCQCLLKKEEYYEVLEHTSDILRHHPGIVKAYYVRARAHAEVWNEAEAKADLQKVLELEPSMQKAVRRELRLLENRMAEKQEEERLRCRNMLSQGATQPPAEPPTEPPAQSSTEPPAEPPTAPSAELSAGPPAEPATEPPPSPGHSLQH [A197P],40.5 °C,-3.6 °C
MDAALLLNVEGVKKTILHGGTGELPNFITGSRVIFHFRTMKCDEERTVIDDSRQVGQPMHIIIGNMFKLEVWEILLTSMRVHEVAEFWCDTIHTGVYPILSRSLRQMAQGKDPTEWHVHTCGLANMFAYHTLGYEDLDELQKEPQPLVFVIELLQVDAPSDYQRETWNLSNHEKMKAVPVLHGEGNRLFKLGRYEEASSKYQEAIICLRNLQTKEKPWEVQWLKLEKMINTLILNYCQCLLKKEEYYEVLEHTSDILRHHPGIVKAYYVRARAHAEVXNEAEAKADLQKVLELEPSMQKAVRRELRLLENRMAEKQEEERLRCRNMLSQGATQPPAEPPTEPPAQSSTEPPAEPPTAPSAELSAGPPAEPATEPPPSPGHSLQH [W278X],33.2 °C,-10.9 °C
MDAALLLNVEGVKKTILHGGTGELPNFITGSRVIFHFRTMKCDEERTVIDDSRQVGQPMHIIIGNMFKLEVWEILLTSMRVHEVAEFWCDTIHTGVYPILSRSLRQMAQGKDPTEWHVHTCGLANMFAYHTLGYEDLDELQKEPQPLVFVIELLQVDAPSDYQRETWNLSNHEKMKAVPVLHGEGNRLFKLGRYEEASSKYQEAIICLRNLQTKEKPWEVQWLKLEKMINTLILNYCQRLLKKEEYYEVLEHTSDILRHHPGIVKAYYVRARAHAEVWNEAEAKADLQKVLELEPSMQKAVRRELRLLENRMAEKQEEERLRCRNMLSQGATQPPAEPPTEPPAQSSTEPPAEPPTAPSAELSAGPPAEPATEPPPSPGHSLQH [C239R],46.7 °C,2.6 °C
MDAALLLNVEGVKKTILHGGTGELPNFITGSRVIFHFRTMKCDEERTVIDDSRQVGQPMHIIIGNMFKLEVWEILLTSMRVHEVAEFWCDTIHTGVYPILSRSLRQMAQGKDPTEWHVHTCGLANMFAYHTLGYEDLDELQKEPQPLVFVIELLQVDAPSDYQRETWNLSNHEKMKAVPVLHGEGNRLFKLGRYEEASSKYQEAIICLRNLQTKEKPWEVQWLKLEKMINTLILNYCQCLLKKEEYYEVLEHTSDILRHHPGIVKAYYVRARAHAEVWNEAEAKADLQKVLELEPSMQKAVLRELRLLENRMAEKQEEERLRCRNMLSQGATQPPAEPPTEPPAQSSTEPPAEPPTAPSAELSAGPPAEPATEPPPSPGHSLQH [R302L],43.2 °C,-0.9 °C
